Where “and” joins values, the source holds several entries; their conditions need not be identical. Equal values may be shown once. Entries after “also recorded” stand apart in the source; their conditions may differ. Read-outs that look alike come from different tables or passages of the source.
Key:
[1] = tested on: sulfated N-terminal peptide of CCR5; test: SPR kinetic interaction analysis of BA8 Fab (wild type and mutants) with the sulfated peptide; type: binding; conditions: SPR Biacore 8K, PBS 0.005% Tween 20, global fitting
Text: To quantitatively evaluate the intermolecular interaction between BA8 and the sulfated N-terminal peptide of CCR5, we prepared a Fab fragment of BA8 as a recombinant protein (Fig. S2, A and B) and conducted kinetic interaction analysis using SPR. The Fab was immobilized on a sensor chip using amine coupling, and the synthesized sulfated and non-sulfated N-terminal peptides of CCR5 were used as the analytes.
(§1) To further dissect how molecular recognition occurs, we evaluated the contribution of individual residues of BA8 to the recognition of the sulfated peptide. We analyzed the crystal structure using the PDB PISA server, and we conducted mutation analyses in which the residues predicted to form hydrogen bonds or located at the interface were mutated to alanine (Fig. 3B).
The bindings of the peptides to Fabs were analyzed using a Biacore 8K instrument (Cytiva). Each Fab was immobilized on the surface of a CM5 sensor chip (Cytiva) by the amine-coupling method according to the manufacturer’s instructions in the condition of pH 5.5. The immobilization level reached to about 3000 Response Unit (RU). PBS containing 0.005% Tween 20 was used as the running buffer. The kinetic data were obtained by injection of increasing concentrations of peptides into the sensor chip. The flow rate of the analyte were set to 30 μl/min. The data were analyzed using BIAevaluation software (Cytiva), and the binding affinity as well as kinetic parameters were calculated by a global fitting of the curves.

[2] = tested on: sulfated N-terminal peptide of CCR5; test: ITC analysis of BA8 Fab (wild type and mutants) with the sulfated peptide; type: binding; conditions: 10 μM Fab in cell, 100 μM sulfated peptide in syringe, PBS, 25 °C
Text: To determine the thermodynamic parameters accompanying the interaction, we performed an ITC analysis (Fig. 2B, Table 2).
as §1
The ITC experiments were performed using a MicroCal PEAQ-ITC (Malvern Panalytical, Malvern, UK). The BA8 Fab fragment antibody, sufficiently dialyzed in PBS, was adjusted to 10 μM for the cells, and the CCR5 N-terminal peptide, dissolved in the dialysate, was adjusted to 100 μM for the syringe. The first injection of 0.5 μl (omitted from the analysis) was followed by 19 injections of 2 μl with 120 s intervals at a constant temperature of 25 °C. The titration syringe was continuously stirred at 750 rpm.
The baselines were smoothly adjusted for the step after each titration saturated and fitted as one set of sites binding in MicroCal PEAQ-ITC Analysis Software (Malvern Panalytical, Malvern, UK).

[3] = DSF thermal stability of BA8 Fab and mutants; type: physicochemical
Procedure: To assess the effect of sulfated peptide binding on the thermal stability of BA8, we performed differential scanning fluorimetry (DSF) measurements (Fig. 2C) ([25]). The melting temperature (Tm) of BA8 forming a complex with the sulfated peptide was 75.6 °C, whereas the pre-binding Tm was 70.8 °C.
We evaluated the stabilizing effect of peptide binding on each mutant using DSF (Fig. S6).
The DSF thermal stability measurements were performed using a CFX Real-Time PCR System (Bio-Rad). First, 1 μl of 100 × SYPRO Orange stain was diluted with 19 μl of 8.3 μM unbound-BA8 Fab or the solution remaining in the cell after ITC measurement. Next, fluorescence was scanned every minute to obtain melting curves of the solutions as they were heated at 1.0 °C/min. The change in the scanned relative fluorescence unit per unit time was recorded, and the temperature at its peak was considered to be the melting temperature (Tm) ([42]).

[4] = tested on: sulfated CCR5 on HEK293 cells transfected with CCR5 + TPST2 (C2); test: Flow cytometry binding to C2 cells; type: cell-based
Text: We prepared model cells with transient overexpression to examine whether BA8 can recognize sulfated full-length CCR5. As referred in the Introduction section, previous research has shown that protein tyrosine sulfotransferases (TPSTs) are responsible for tyrosine sulfation ([10], [11], [12]). Those two isoforms of TPST (TPST1 and TPST2) and CCR5 genes were transiently transfected in the following five combinations to HEK293 cells: Negative Control (NC); CCR5 (C); CCR5 + TPST1 (C1); CCR5 + TPST2 (C2); and CCR5 + TPST1 + TPST2 (C12). Each protein contained the following tag sequences at the C-terminus: CCR5 – FLAG, TPST1 – HA, and TPST2 – Myc. The overexpression of each protein was confirmed by western blotting using tag antibodies (Fig. 5, A and B).
We conducted flow cytometry using these cells to confirm that BA8 can recognize sulfated CCR5 expressed on the cell surface (Fig. 5D).
To quantitatively evaluate the binding ability of BA8 to C2 and C12 cells, we plotted the median fluorescence intensity of antibody binding against BA8 concentration (Fig. 5E). An increase in the signal with increasing antibody concentration was confirmed, and the binding activity was quantitatively evaluated by fitting with a sigmoid function.
HEK293 cells stored in liquid nitrogen were initiated into the culture by thawing. […]

[5] = tested on: endogenous CCR5 expressed on TZM-bl; test: Flow cytometry binding to TZM-bl cells; type: cell-based; conditions: BA8 full-length IgG, read-out: BC50 (the source's name)
Procedure: Cells were aliquoted into 96 Well Conical (V) Bottom Plates (ThermoFisher Scientific) at 50,000 cells per sample and fixed with 2% paraformaldehyde at 4 °C for 30 min. After a PBS wash, 50 μl of goat anti-rabbit IgG Alexa 488 (Invitrogen) diluted 1000-fold by PBS were added to the sample. After incubation at 4 °C for 30 min, PBS washed cells were diluted with PBS containing 2% fetal bovine serum, and flow cytometry was performed using a FACS Canto system (BD Biosciences).

[6] = tested on: YU2 (CCR5 tropic strain) strain in TZM-bl cells; test: Pseudoviral assay (single-round viral infective assay) in TZM-bl cells; type: cell-based, HIV; conditions: 48 h post-infection, luciferase read-out, BA8 up to 50 μg/ml (approximately 350 nM)
Procedure: Subsequently, we conducted a pseudoviral test using TZM-bl cells.
The anti-HIV activity of BA8, isotype control antibody, and Maraviroc (Sigma-Aldrich) in a single-round viral infective assay against the YU2 (CCR5 tropic strain) strain in TZM-bl cells. At 48 h post-infection, cells were lysed, and relative light units were measured using a Steady-Glo luciferase assay system and GloMax Discover microplate reader (Promega).

[7] = Fab immobilized on CM5 chip, sulfated peptide as analyte

B1: BA8: rabbit antibody clone from phage display that specifically recognizes the sulfated N-terminal peptide of CCR5 (antibody, V domains shown)
VH: QSLEESGGGLFKPTDTLTLTCTVSGFSLSSYSIRWVRQAPGNGLEWIGAIGSGGNAYYTSWAKSRSTITRNTNENTVTLKMTSLTVADTATYFCARGGINFGIWGPGTLVTVSS
VL: AAVLTQTPSPVSAAVGSTVTINCQSSQSVYSKNWLSWFQQKPGQPPKQLIYSASTLDSGVPSRFSGSGSGTQFTLTISGVQCDDAATYYCQGTYGDASAFGGGTEVVVK
With B1 the kon ([1]; Fab immobilized on CM5 chip by amine coupling (~3000 RU), sulfated peptide as analyte (2 to 162 nM; 20 nM to 1620 nM for the weak mutants of Fig. 3), 30 μl/min) was 251000 mol/L/s, the Kd [1, 7] was 0.809 nM and the koff [1, 7] was 0.000203 s⁻¹. The ΔH [2] was -28.7 kcal/mol, the “melting temperature (Tm), unbound (pre-binding)” value ([3]; SYPRO Orange, 8.3 μM unbound Fab, heated at 1.0 °C/min) was 70.8 °C and the “melting temperature (Tm) of BA8 forming a complex with the sulfated peptide” value ([3]; SYPRO Orange, solution remaining in the cell after ITC measurement, 1.0 °C/min) was 75.6 °C. For the same molecule, the “increase of Tm after forming a complex with the sulfated peptide versus BA8 alone” value ([3]; complex from the ITC measurement) was 4.8 °C, the EC50 ([4]; C2 cells, BA8 full-length IgG, median fluorescence intensity vs concentration, sigmoid fit, read-out: half-maximal binding concentration (BC50)) was 3.64 nM and the EC50 ([4]; HEK293 overexpression system, C2 or C12 not specified, read-out: BC50 in overexpression system using HEK293 cells (approximate, discussion)) was roughly 3 nM. The EC50 [5] was 49 nM and ~50 nM and the “inhibition of HIV infection, in words” value [6] was “did not significantly inhibit the infection; also recorded: did not show inhibitory activity”.

From publication PMC11849073, “Specific recognition mechanism of an antibody to sulfated tyrosine and its potential use in biological research” (The Journal of Biological Chemistry, 2025)
